Measured values from US9993529B2, “Stable formulations of a hyaluronan-degrading enzyme” (Halozyme, Inc., priority 2011, dated 2018).

Assay: RP-HPLC insulin percent purity
Type: physicochemical
Experimental: Apparent solubility was measured as the percent insulin recovery as compared to the initial formulations/conditions.
To determine the apparent solubility, the peak area of insulin/insulin analog main peak and desamido peak were integrated and combined together to calculate the percentage relative to the standards. […] The data were processed using Design-Expert® 7.0 (StatEase) and the “historical data” feature. Insulin percent purity was expressed as the percent of main insulin versus all insulin species.

Substance: Regular Insulin: mature human insulin, SEQ ID NOS: 103 and 104
- Percent of insulin main peak (50 mM NaCl, pH 7.0, 0 months at 2-8° C.): 97.64%
- Percent of insulin main peak (50 mM NaCl, pH 7.0, 0.25 months at 2-8° C.): 97.59%
- Percent of insulin main peak (50 mM NaCl, pH 7.0, 0.5 months at 2-8° C.): 97.50%
- Percent of insulin main peak (50 mM NaCl, pH 7.0, 1 month at 2-8° C.): 97.44%
- Percent of insulin main peak (50 mM NaCl, pH 7.0, 3 months at 2-8° C.): 97.24%
- Percent of insulin main peak (50 mM NaCl, pH 7.0, 5 months at 2-8° C.): 97.73%
- Percent of insulin main peak (50 mM NaCl, pH 7.0, 9 months at 2-8° C.): 97.20%
- Percent of insulin main peak (50 mM NaCl, pH 7.2, 0 months at 2-8° C.): 97.64%
- Percent of insulin main peak (50 mM NaCl, pH 7.2, 0.25 months at 2-8° C.): 97.59%
- Percent of insulin main peak (50 mM NaCl, pH 7.2, 0.5 months at 2-8° C.): 97.56%
- Percent of insulin main peak (50 mM NaCl, pH 7.2, 1 month at 2-8° C.): 97.46%
- Percent of insulin main peak (50 mM NaCl, pH 7.2, 3 months at 2-8° C.): 97.47%
- Percent of insulin main peak (50 mM NaCl, pH 7.2, 5 months at 2-8° C.): 97.75%
- Percent of insulin main peak (50 mM NaCl, pH 7.2, 9 months at 2-8° C.): 97.27%
- Percent of insulin main peak (50 mM NaCl, pH 7.4, 0 months at 2-8° C.): 97.58%
- Percent of insulin main peak (50 mM NaCl, pH 7.4, 0.25 months at 2-8° C.): 97.54%
- Percent of insulin main peak (50 mM NaCl, pH 7.4, 0.5 months at 2-8° C.): 97.48%
- Percent of insulin main peak (50 mM NaCl, pH 7.4, 1 month at 2-8° C.): 97.47%
- Percent of insulin main peak (50 mM NaCl, pH 7.4, 3 months at 2-8° C.): 97.45%
- Percent of insulin main peak (50 mM NaCl, pH 7.4, 5 months at 2-8° C.): 97.74%
- Percent of insulin main peak (50 mM NaCl, pH 7.4, 9 months at 2-8° C.): 97.27%
- Percent of insulin main peak (50 mM NaCl, pH 7.6, 0 months at 2-8° C.): 97.65%
- Percent of insulin main peak (50 mM NaCl, pH 7.6, 0.25 months at 2-8° C.): 97.58%
- Percent of insulin main peak (50 mM NaCl, pH 7.6, 0.5 months at 2-8° C.): 97.33%
- Percent of insulin main peak (50 mM NaCl, pH 7.6, 1 month at 2-8° C.): 97.44%
- Percent of insulin main peak (50 mM NaCl, pH 7.6, 3 months at 2-8° C.): 97.35%
- Percent of insulin main peak (50 mM NaCl, pH 7.6, 5 months at 2-8° C.): 97.66%
- Percent of insulin main peak (50 mM NaCl, pH 7.6, 9 months at 2-8° C.): 97.34%
- Percent of insulin main peak (80 mM NaCl, pH 7.0, 0 months at 2-8° C.): 97.65%
- Percent of insulin main peak (80 mM NaCl, pH 7.0, 0.25 months at 2-8° C.): 97.50%
- Percent of insulin main peak (80 mM NaCl, pH 7.0, 0.5 months at 2-8° C.): 97.30%
- Percent of insulin main peak (80 mM NaCl, pH 7.0, 1 month at 2-8° C.): 97.20%
- Percent of insulin main peak (80 mM NaCl, pH 7.0, 5 months at 2-8° C.): 97.81%
- Percent of insulin main peak (80 mM NaCl, pH 7.0, 9 months at 2-8° C.): 96.18%
- Percent of insulin main peak (80 mM NaCl, pH 7.2, 0 months at 2-8° C.): 97.57%
- Percent of insulin main peak (80 mM NaCl, pH 7.2, 0.25 months at 2-8° C.): 97.59%
- Percent of insulin main peak (80 mM NaCl, pH 7.2, 0.5 months at 2-8° C.): 97.30%
- Percent of insulin main peak (80 mM NaCl, pH 7.2, 1 month at 2-8° C.): 97.45%
- Percent of insulin main peak (80 mM NaCl, pH 7.2, 3 months at 2-8° C.): 97.34%
- Percent of insulin main peak (80 mM NaCl, pH 7.2, 5 months at 2-8° C.): 97.64%
- Percent of insulin main peak (80 mM NaCl, pH 7.4, 0 months at 2-8° C.): 97.56%
- Percent of insulin main peak (80 mM NaCl, pH 7.4, 0.25 months at 2-8° C.): 97.61%
- Percent of insulin main peak (80 mM NaCl, pH 7.4, 0.5 months at 2-8° C.): 97.51%
- Percent of insulin main peak (80 mM NaCl, pH 7.4, 1 month at 2-8° C.): 97.43%
- Percent of insulin main peak (80 mM NaCl, pH 7.4, 3 months at 2-8° C.): 97.43%
- Percent of insulin main peak (80 mM NaCl, pH 7.4, 5 months at 2-8° C.): 97.75%
- Percent of insulin main peak (80 mM NaCl, pH 7.4, 9 months at 2-8° C.): 97.29%
- Percent of insulin main peak (80 mM NaCl, pH 7.6, 0 months at 2-8° C.): 97.63%
- Percent of insulin main peak (80 mM NaCl, pH 7.6, 0.25 months at 2-8° C.): 97.62%
- Percent of insulin main peak (80 mM NaCl, pH 7.6, 0.5 months at 2-8° C.): 97.52%
- Percent of insulin main peak (80 mM NaCl, pH 7.6, 1 month at 2-8° C.): 97.37%
- Percent of insulin main peak (80 mM NaCl, pH 7.6, 3 months at 2-8° C.): 97.64%
- Percent of insulin main peak (80 mM NaCl, pH 7.6, 5 months at 2-8° C.): 97.67%
- Percent of insulin main peak (80 mM NaCl, pH 7.6, 9 months at 2-8° C.): 97.31%
- Percent of insulin main peak (110 mM NaCl, pH 7.0, 0 months at 2-8° C.): 97.64%
- Percent of insulin main peak (110 mM NaCl, pH 7.0, 0.25 months at 2-8° C.): 97.31%
- Percent of insulin main peak (110 mM NaCl, pH 7.0, 0.5 months at 2-8° C.): 97.57%
- Percent of insulin main peak (110 mM NaCl, pH 7.0, 1 month at 2-8° C.): 96.64%
- Percent of insulin main peak (110 mM NaCl, pH 7.0, 3 months at 2-8° C.): 96.10%
- Percent of insulin main peak (110 mM NaCl, pH 7.0, 5 months at 2-8° C.): 97.79%
- Percent of insulin main peak (110 mM NaCl, pH 7.2, 0 months at 2-8° C.): 97.62%
- Percent of insulin main peak (110 mM NaCl, pH 7.2, 0.25 months at 2-8° C.): 97.46%
- Percent of insulin main peak (110 mM NaCl, pH 7.2, 0.5 months at 2-8° C.): 97.35%
- Percent of insulin main peak (110 mM NaCl, pH 7.2, 3 months at 2-8° C.): 97.49%
- Percent of insulin main peak (110 mM NaCl, pH 7.2, 5 months at 2-8° C.): 97.61%
- Percent of insulin main peak (110 mM NaCl, pH 7.2, 9 months at 2-8° C.): 95.91%
- Percent of insulin main peak (110 mM NaCl, pH 7.4, 0 months at 2-8° C.): 97.65%
- Percent of insulin main peak (110 mM NaCl, pH 7.4, 0.25 months at 2-8° C.): 97.58%
- Percent of insulin main peak (110 mM NaCl, pH 7.4, 0.5 months at 2-8° C.): 97.39%
- Percent of insulin main peak (110 mM NaCl, pH 7.4, 1 month at 2-8° C.): 97.36%
- Percent of insulin main peak (110 mM NaCl, pH 7.4, 3 months at 2-8° C.): 97.36%
- Percent of insulin main peak (110 mM NaCl, pH 7.4, 5 months at 2-8° C.): 97.79%
- Percent of insulin main peak (110 mM NaCl, pH 7.4, 9 months at 2-8° C.): 96.91%
- Percent of insulin main peak (110 mM NaCl, pH 7.6, 0 months at 2-8° C.): 97.58%
- Percent of insulin main peak (110 mM NaCl, pH 7.6, 0.25 months at 2-8° C.): 97.57%
- Percent of insulin main peak (110 mM NaCl, pH 7.6, 0.5 months at 2-8° C.): 97.60%
- Percent of insulin main peak (110 mM NaCl, pH 7.6, 1 month at 2-8° C.): 97.52%
- Percent of insulin main peak (110 mM NaCl, pH 7.6, 3 months at 2-8° C.): 97.42%
- Percent of insulin main peak (110 mM NaCl, pH 7.6, 5 months at 2-8° C.): 97.61%
- Percent of insulin main peak (110 mM NaCl, pH 7.6, 9 months at 2-8° C.): 97.31%
- Percent of insulin main peak (140 mM NaCl, pH 7.0, 0 months at 2-8° C.): 97.65%
- Percent of insulin main peak (140 mM NaCl, pH 7.0, 0.25 months at 2-8° C.): 97.15%
- Percent of insulin main peak (140 mM NaCl, pH 7.0, 1 month at 2-8° C.): 96.39%
- Percent of insulin main peak (140 mM NaCl, pH 7.0, 3 months at 2-8° C.): 96.16%
- Percent of insulin main peak (140 mM NaCl, pH 7.0, 9 months at 2-8° C.): 95.17%
- Percent of insulin main peak (140 mM NaCl, pH 7.2, 0 months at 2-8° C.): 97.56%
- Percent of insulin main peak (140 mM NaCl, pH 7.2, 0.25 months at 2-8° C.): 97.37%
- Percent of insulin main peak (140 mM NaCl, pH 7.2, 1 month at 2-8° C.): 96.62%
- Percent of insulin main peak (140 mM NaCl, pH 7.2, 3 months at 2-8° C.): 96.60%
- Percent of insulin main peak (140 mM NaCl, pH 7.2, 9 months at 2-8° C.): 95.49%
- Percent of insulin main peak (140 mM NaCl, pH 7.4, 0 months at 2-8° C.): 97.64%
- Percent of insulin main peak (140 mM NaCl, pH 7.4, 0.25 months at 2-8° C.): 97.57%
- Percent of insulin main peak (140 mM NaCl, pH 7.4, 0.5 months at 2-8° C.): 97.33%
- Percent of insulin main peak (140 mM NaCl, pH 7.4, 1 month at 2-8° C.): 97.23%
- Percent of insulin main peak (140 mM NaCl, pH 7.4, 3 months at 2-8° C.): 97.38%
- Percent of insulin main peak (140 mM NaCl, pH 7.4, 5 months at 2-8° C.): 97.73%
- Percent of insulin main peak (140 mM NaCl, pH 7.4, 9 months at 2-8° C.): 96.10%
- Percent of insulin main peak (140 mM NaCl, pH 7.6, 0 months at 2-8° C.): 97.64%
- Percent of insulin main peak (140 mM NaCl, pH 7.6, 0.25 months at 2-8° C.): 97.61%
- Percent of insulin main peak (140 mM NaCl, pH 7.6, 0.5 months at 2-8° C.): 97.41%
- Percent of insulin main peak (140 mM NaCl, pH 7.6, 1 month at 2-8° C.): 97.51%
- Percent of insulin main peak (140 mM NaCl, pH 7.6, 3 months at 2-8° C.): 97.35%
- Percent of insulin main peak (140 mM NaCl, pH 7.6, 5 months at 2-8° C.): 97.56%
- Percent of insulin main peak (140 mM NaCl, pH 7.6, 9 months at 2-8° C.): 97.07%
- insulin main peak percentage (regular insulin/rHuPH20, long term storage at 2-8° C.): about 97%
